Here are results for one molecule from US10052415B2, “Tropoelastin for promoting endothelial cell adhesion or migration” (University of Utah Research Foundation, priority 2005, dated 2018).

In this test the test system is human aortic endothelial cells (HuAEC). Kind of test: Boyden chamber migration assay, HuAEC. The class given is cell-based. The conditions noted are these: FIG. 3. How it is done:
Migration of HuAECs to BSA, fibronectin, and recombinant tropoelastin was measured.
We assayed the hexamer VGVAPG (SEQ ID No. 5). This hexameric sequence is repeated multiple times within the full length tropoelastin protein. […] We additionally assayed a 17 residue C-terminal fragment of the tropoelastin protein. This 17 amino acid residue is depicted in SEQ ID NO: 6 (IFPGGACLGKACGRKRK).
Briefly, 16 h before the assay, 70% confluent 75 cm^2 flasks of human melanoma A2058 cell (ATCC, passage 3-12) or human aortic endothelial cells (HAEC; Cambrex, passage 4-7) were kept in basal media (dMEM+0.1% BSA, or EBM-2+1% FCS, respectively). Cells were lifted with 0.25% Trypsin/1 mM EDTA, diluted in 0.5% BSA (dMEM) and washed 3 times in basal media (dMEM+0.1% BSA) or (EBM-2+0.1% FCS,) and recovered in suspension at working density (2×10^6/ml for A2058 or 1.5×10^6 HAEC) for 1 h at 37° C. (5% CO2). For migration-inhibition assays, the cells were preincubated during the recovery period for 30 minutes in 25 μg/ml anti-integrin antibodies (Chemicon, Temecula, Calif.) or control IgG (Jackson ImmunoResearch, Inc.). All migration assays were performed in triplicate in a 48-well Boyden chamber apparatus (NeuroProbe, Cabin John, Md.). The recovered cells were added to the bottom chambers in a volume of 30 μl. The wells were overlayed with an 8 μm-pore polycarbonate membrane (NeuroProbe, Cabin John, Md.) and coated with 100 μg/ml Rat tail collagen (Trevigen, Gaithersburg, Md.) for A2058 cells or acetylated 1% gelatin from porcine skin (Sigma, St. Louis, Mo.) for HAEC. The apparatus was assembled and stored inverted at 37° C. (5 CO2) for a 2 h adhesion-period. The apparatus was re-inverted and 52 μl of the chemoattractants, 10 mg/ml Fibronectin, 200 ng/ml Tropoelastin, 10 μM elastin-derived peptides; VGVAPG (SEQ ID No. 5), and IFPGGACLGKACGRKRK (SEQ ID No. 6 (Cterm peptide) or 0.1% BSA/dMEM (diluent, random migration control), were added to the upper chambers and the migration was allowed to proceed for 2 h in a humidified incubator at 37° C. (5% CO2). The membranes were then removed, fixed in methanol, stained with a Hema 3 stain set (Fisher Scientific, Pittsburgh, Pa.) and mounted migrated-side down to a 50×75 mm glass slide. Before 90% mounting medium (in xylenes) was applied, the non-migrated cells were removed from the exposed, non-migrated face of the membrane with a moistened swab. Readings represent the number of cells migrating through the membrane (the sum of two high power X 20 fields/well, averaged for each sextuplicate-well set).

B1: tropoelastin: recombinant human tropoelastin lacking native signal sequence, 10× His tag and Factor Xa site on N-terminus, 706 amino acid residues (SEQ ID NO: 4) (protein, listed as Homo sapiens)
chain: MGHHHHHHHHHHSSGGIEGRGGVPGAIPGGVPGGVFYPGAGLGALGGGALGPGGKPLKPVPGGLAGAGLGAGLGAFPAVTFPGALVPGGVADAAAAYKAAKAGAGLGGVPGVGGLGVSAGAVVPQPGAGVKPGKVPGVGLPGVYPGGVLPGARFPGVGVLPGVPTGAGVKPKAPGVGGAFAGIPGVGPFGGPQPGVPLGYPIKAPKLPGGYGLPYTTGKLPYGYGPGGVAGAAGKAGYPTGTGVGPQAAAAAAAKAAAKFGAGAAGVLPGVGGAGVPGVPGAIPGIGGIAGVGTPAAAAAAAAAAKAAKYGAAAGLVPGGPGFGPGVVGVPGAGVPGVGVPGAGIPVVPGAGIPGAAVPGVVSPEAAAKAAAKAAKYGARPGVGVGGIPTYGVGAGGFPGFGVGVGGIPGVAGVPGVGGVPGVGGVPGVGISPEAQAAAAAKAAKYGVGTPAAAAAKAAAKAAQFALLNLAGLVPGVGVAPGVGVAPGVGVAPGVGLAPGVGVAPGVGVAPGVGVAPGIGPGGVAAAAKSAAKVAAKAQLRAAAGLGAGIPGLGVGVGVPGLGVGAGVPGLGVGAGVPGFGAVPGALAAAKAAKYGAAVPGVLGGLGALGGVGIPGGVVGAGPAAAAAAAKAAAKAAQFGLVGAAGLGGLGVGGLGVPGVGGLGGIPPAAAAKAAKYGVAARPGFGLSPIFPGGACLGKACGRKRK
With B1, the “level of HuAEC migration relative to comparator” value is given as “comparable to that of fibronectin”. For the same molecule, under “200 ng/ml Tropoelastin, 10 μM peptides, BSA control”, the “migration of HuAECs” value is “promoted endothelial cell migration”.
